Measurements from patent publication US9618524B2, “Method, composition, isolation and identification of a plaque particle and related biomarker” (Plaxgen Inc., priority 2012, dated 2017).

What was measured:
Assay in all cases: Mass spectroscopy proteomics, semi-quantitative binding affinity of serum proteins (plaqueproteome, Table 2)
Conditions in all cases: higher number = stronger affinity
[1] = target: T1, Abeta-42 plaque particles (Homo sapiens, UniProt P05067)
T1 construct: Abeta 1-42
Procedure: Next to isolate serum derived Abeta-42 plaque particles, the plasma or serum samples obtained from AD subjects were first centrifuged at 5,000 rpm for 5 min and the supernatants were transferred to new centrifuge tubes. Next, the supernatants were diluted in PBS to make 50% of the serum and plasma samples and used for incubation with Abeta-42 plaque oligomers/aggregates. Each assay was performed in 1 mL reaction (800 μL of 50% plasma or serum) and 200 μL (30 μg) of the Abeta-42 aggregates and the mixtures were incubated at 37° C. for 1 hr. To the mixture Thioflavin S dye (120 μg) was added and the sample was incubated for additional 30 min at 37° C. After the incubation, the mixture was directly used for sample acquisition using flow cytometer (FACS ARIA II, BD Biosciences, San Jose, Calif.). After initial detection of Abeta-42 plaque particles in the acquisition blot, gates were drawn in fluorescent dot blot to separately sort and isolate fluorescently labeled Abeta-42 particles.
(§1) For preparing trypsin digested peptide sequences, the isolated plaque particles were centrifuged at 10000 rpm for 5 min and the pellet containing plaque particles was resuspended in 100 μl PBS buffer. Stock solutions of digestion buffer (Ammonium Biocarbonate 50 mM), reducing buffer (DDT 100 mM) and alkylation buffer (lodoaceamide 100 mM) were prepared and stored at −20° C. for up to two months. For trypsin digestion, 100 μl of each plaque particles (2000 of Abeta-42, cholesterol, Tau and alpha-synuclein) were precipitated using cold acetone −80° C. by adding 4X's the volume. The samples were placed on dry ice for 10 min with intermittent vortex. Next, the samples were centrifuged at 4° C. at 10000 G for 10 min. Top layer of acetone was carefully removed from the tube with care not to disturb the plaque particles pellet. The samples were speed-vac for 10 min to ensure all acetone has been boiled away. The plaque particles pellet were reconstituted with 15 μl 8M Urea 100 mM Ammonium bicarbonate stock and 20 μl protease max solution. The protease max solution (Promega, Madison, Wis.) was prepared from stock by adding 60 μl 50 mM Ammonium bicarbonate and used for 3 solution digests (20 μl each). […] The tubes were incubated at 55° C. for 30 minutes. The tubes were then removed and brought to the room temperature followed by addition of 3.2 μl of 1M acrylamide and incubated at room temperature for 30 minutes. To the sample, 63 μL of 50 mM Ammonium bicarbonate was added for a final volume of 98 μl and 2 μl of trypsin (10 μg, Trypsin/Lys C Mix). After mixing the solution with pipet the samples were incubated at 37° C. overnight. After the overnight digest, the tryptic digest were quenched and acidified by adding 10 μl of 50% formic acid/water stock dilution. The samples were centrifuged at 10000 G for 2 minutes and purified using stage tip and used for MS/Mass analysis.
(§2) All MS/MS samples were analyzed using Sequest (Thermo Fisher Scientific, San Jose, Calif., USA; version 1.0). Sequest was set up to search the SUMS_uniprot_Human database (35847 entries) assuming the digestion enzyme strict trypsin. Sequest was searched with a fragment ion mass tolerance of 1.00 Da and a parent ion tolerance of 20 PPM. Propionamide of cysteine was specified in Sequest as a fixed modification. Oxidation of methionine and phospho of serine, threonine and tyrosine were specified in Sequest as variable modifications.
Scaffold (version Scaffold_4.2.1, Proteome Software Inc., Portland, Oreg.) was used to validate MS/MS based peptide and protein identifications. […] Protein probabilities were assigned by the Protein Prophet algorithm (Nesvizhskii, Al et al 2003). […] Proteins sharing significant peptide evidence were grouped into clusters. Proteins were annotated with GO terms from NCBI (downloaded Jan. 17, 2014).

[2] = system: High Density cholesterol (Chl Large) plaque particles; parameters: species or system human
Procedure: (§3) The goal was to isolate plaque particles synthesized in the bio-fluids in a relatively pure form to enable their subsequent use for identification of components that contribute to the plaque formation. In order to isolate cholesterol plaque particles, the plasma or serum samples obtained from atherosclerotic subjects were first centrifuged at 5,000 rpm for 5 min and the supernatants were transferred to new centrifuge tubes. Next, the supernatants were diluted in PBS to make 50% of the serum and used for incubation with cholesterol oligomers/aggregates. Each assay was performed in 1 mL reaction (800 μL of 50% plasma or serum) and 200 μL (30 μg) of the Cholesterol aggregates and the mixtures were incubated at 37° C. for 1 hr After the incubation, the mixture was directly used for sample acquisition using flow cytometer (FACS ARIA II, BD Biosciences, San Jose, Calif.). […] In order to isolate these fractions, three sets of gates were drawn in the acquisition blot to separately sort and isolate High density or high complex cholesterol particles, Low density or low complex cholesterol particles and both High and low density cholesterol particles together.
as §1, §2
(§4) Scaffold (version Scaffold_4.2.1, Proteome Software Inc., Portland, Oreg.) was used to validate MS/MS based peptide and protein identifications. […] Protein probabilities were assigned by the Protein Prophet algorithm (Nesvizhskii, Al et al 2003).

[3] = system: Low density cholesterol (Chl small) plaque particles; parameters: species or system human
Procedure: as §3, §1, §2, §4

[4] = target: T2, alpha-synuclein plaque particles (Homo sapiens, UniProt P37840)
T2 construct: 140 amino acids polypeptide
Procedure: To prepare oligomers/aggregates of human alpha-synuclein (140 amino acids polypeptide), 1 mg of the recombinant alpha-synuclein protein was suspended in 1 mL of PBS and the sample was incubated at 37° C. for 2 hrs. After incubation, all the samples were centrifuged for 5 min. at 5000 rpm to remove precipitate, if any, and the supernatant containing oligomers/aggregates were used in vitro plaque particles formation assay. For detecting alpha-synuclein plaque particles Thioflavin S (Ex/Em=430 nm/550 nm) amyloid binding fluorescent dye (10 μg) was used.
Similarly, to isolate alpha-synuclein plaque particles, diluted plasma or serum samples obtained from AD subjects were used for incubation with alpha-synuclein plaque oligomers/aggregates. Each assay was performed in 1 mL reaction (800 μL of 50% plasma or serum) and 200 μL (30 μg) of the alpha-synuclein aggregates and the mixtures were incubated at 37° C. for 1 hr. To the mixture Thioflavin S dye (120 μg) was added and the sample was incubated for additional 30 min at 37° C. After the incubation, the mixture was directly used for sample acquisition using flow cytometer (FACS ARIA II, BD Biosciences, San Jose, Calif.). After initial detection of alpha-synuclein plaque particles, gates were drawn in the acquisition blot to separately sort and isolate fluorescently labeled alpha-synuclein particles.
as §1, §2
Scaffold (version Scaffold_4.2.1, Proteome Software Inc., Portland, Oreg.) was used to validate MS/MS based peptide and protein identifications.

Tau plaque particles = system: Tau plaque particles; parameters: species or system human
Procedure: For Tau-74 (74-102) (Exon 3/Insert 2 domain) preparation, 1 mg of Tau-74 was suspended in 1 mL of PBS and the sample was incubated at 37° C. for 2 hrs. Similarly for preparing Tau-275 (275-305) (Repeat 2 domain) 1 mg of the peptide was suspended in 1 mL of PBS and the sample was incubated at 37° C. for 2 hrs. After incubation, all the samples were centrifuged for 5 min. at 5000 rpm to remove precipitate, if any, and the supernatant containing oligomers/aggregates were used for in vitro amyloid plaque particles formation assay. For detecting Tau plaque particles, Thioflavin S (Ex/Em=430 nm/550 nm) amyloid binding fluorescent dye (10 μg) was used in the assay.
Next, to isolate Tau plaque particles, as performed for Abeta-42 and Abeta-28 plaque particles isolation, diluted serum samples were used for incubation separately with Tau-45, Tau-74 and Tau-275 oligomers/aggregates. Each assay was performed in 1 mL reaction (800 μL of 50% plasma or serum) and 200 μL (30 μg) of each Tau aggregates and the mixtures were incubated at 37° C. for 1 hr. To the each mixture Thioflavin S dye (120 μg) was added and the sample was incubated for additional 30 min at 37° C. After the incubation, each sample was directly used for sample acquisition using flow cytometer (FACS ARIA II, BD Biosciences, San Jose, Calif.). After initial detection of Tau plaque particles, gates were drawn in the acquisition blot to separately sort and isolate fluorescently labeled Tau plaque particles.
as §1, §2

B1: Alpha-1-acid glycoprotein 2 (protein)
chain: QIPLCANLVPVPITNATLDRITGKWFYIASAFRNEEYNKSVQEIQATFFYFTPNKTEDTIFLREYQTRQNQCFYNSSYLNVQRENGTVSRYEGGREHVAHLLFLRDTKTLMFGSYLDDEKNWGLSFYADKPETTKEQLGEFYEALDCLCIPRSDVMYTDWKKDKCEPLEKQHEKERKQEEGES
- Semi-quantitative analysis of proteins binding to different plaque particles: Abeta-42 [1]: 9
- Semi-quantitative analysis of proteins binding to different plaque particles: Chl Large [2]: 5
- Semi-quantitative analysis of proteins binding to different plaque particles: Chl small [3]: 7
- Semi-quantitative analysis of proteins binding to different plaque particles: Synuclein [4]: 10
- Semi-quantitative analysis of proteins binding to different plaque particles: Tau (Tau plaque particles): 9

B2: Protein AMBP (protein)
chain: GPVPTPPDNIQVQENFNISRIYGKWYNLAIGSTCPWLKKIMDRMTVSTLVLGEGATEAEISMTSTRWRKGVCEETSGAYEKTDTDGKFLYHKSKWNITMESYVVHTNYDEYAIFLTKKFSRHHGPTITAKLYGRAPQLRETLLQDFRVVAQGVGIPEDSIFTMADRGECVPGEQEPEPILIPRVRRAVLPQEEEGSGGGQLVTEVTKKEDSCQLGYSAGPCMGMTSRYFYNGTSMACETFQYGGCMGNGNNFVTEKECLQTCRTVAACNLPIVRGPCRAFIQLWAFDAVKGKCVLFPYGGCQGNGNKFYSEKECREYCGVPGDGDEELLRFSN
- Semi-quantitative analysis of proteins binding to different plaque particles: Abeta-42 [1]: 5
- Semi-quantitative analysis of proteins binding to different plaque particles: Chl Large [2]: 5
- Semi-quantitative analysis of proteins binding to different plaque particles: Chl small [3]: 5
- Semi-quantitative analysis of proteins binding to different plaque particles: Synuclein [4]: 5
- Semi-quantitative analysis of proteins binding to different plaque particles: Tau (Tau plaque particles): 10

B3: Zinc-alpha-2-glycoprotein (protein)
chain: QENQDGRYSLTYIYTGLSKHVEDVPAFQALGSLNDLQFFRYNSKDRKSQPMGLWRQVEGMEDWKQDSQLQKAREDIFMETLKDIVEYYNDSNGSHVLQGRFGCEIENNRSSGAFWKYYYDGKDYIEFNKEIPAWVPFDPAAQITKQKWEAEPVYVQRAKAYLEEECPATLRKYLKYSKNILDRQDPPSVVVTSHQAPGEKKKLKCLAYDFYPGKIDVHWTRAGEVQEPELRGDVLHNGNGTYQSWVVVAVPPQDTAPYSCHVQHSSLAQPLVVPWEAS
- Semi-quantitative analysis of proteins binding to different plaque particles: Abeta-42 [1]: 5
- Semi-quantitative analysis of proteins binding to different plaque particles: Chl Large [2]: 4
- Semi-quantitative analysis of proteins binding to different plaque particles: Chl small [3]: 5
- Semi-quantitative analysis of proteins binding to different plaque particles: Synuclein [4]: 7
- Semi-quantitative analysis of proteins binding to different plaque particles: Tau (Tau plaque particles): 4

B4: Alpha-2-antiplasmin (protein)
chain: NQEQVSPLTLLKLGNQEPGGQTALKSPPGVCSRDPTPEQTHRLARAMMAFTADLFSLVAQTSTCPNLILSPLSVALALSHLALGAQNHTLQRLQQVLHAGSGPCLPHLLSRLCQDLGPGAFRLAARMYLQKGFPIKEDFLEQSEQLFGAKPVSLTGKQEDDLANINQWVKEATEGKIQEFLSGLPEDTVLLLLNAIHFQGFWRNKFDPSLTQRDSFHLDEQFTVPVEMMQARTYPLRWFLLEQPEIQVAHFPFKNNMSFVVLVPTHFEWNVSQVLANLSWDTLHPPLVWERPTKVRLPKLYLKHQMDLVATLSQLGLQELFQAPDLRGISEQSLVVSGVQHQSTLELSEVGVEAAAATSIAMSRMSLSSFSVNRPFLFFIFEDTTGLPLFVGSVRNPNPSAPRELKEQQDSPGNKDFLQSLKGFPRGDKLFGPDLKLVPPMEEDYPQFGSPK
- Semi-quantitative analysis of proteins binding to different plaque particles: Abeta-42 [1]: 0
- Semi-quantitative analysis of proteins binding to different plaque particles: Chl Large [2]: 6
- Semi-quantitative analysis of proteins binding to different plaque particles: Chl small [3]: 3
- Semi-quantitative analysis of proteins binding to different plaque particles: Synuclein [4]: 5
- Semi-quantitative analysis of proteins binding to different plaque particles: Tau (Tau plaque particles): 5
